Source: US20190248900A1 (Y BIOLOGICS, published 2019)

Assays:
Assay in all cases: ELISA
[1] = target: T1, CD320 (Homo sapiens (Human), UniProt Q9NPF0 36-229)
T1 sequence: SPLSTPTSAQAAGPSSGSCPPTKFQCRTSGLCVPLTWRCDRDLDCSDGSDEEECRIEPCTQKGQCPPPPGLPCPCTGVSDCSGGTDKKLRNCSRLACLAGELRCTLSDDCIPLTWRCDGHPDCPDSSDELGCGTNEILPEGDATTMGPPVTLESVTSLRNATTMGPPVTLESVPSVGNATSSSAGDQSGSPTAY

[2] = target: T2, NBL1 (Homo sapiens (Human), UniProt P41271 17-181)
T2 sequence: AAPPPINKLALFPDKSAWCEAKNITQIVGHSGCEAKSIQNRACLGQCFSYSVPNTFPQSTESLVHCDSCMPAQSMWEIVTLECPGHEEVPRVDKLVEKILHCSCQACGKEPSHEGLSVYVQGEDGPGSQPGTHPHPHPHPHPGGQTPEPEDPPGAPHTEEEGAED

[3] = target: T3, ULBP1 (Homo sapiens (Human), UniProt Q9BZM6 26-216)
T3 sequence: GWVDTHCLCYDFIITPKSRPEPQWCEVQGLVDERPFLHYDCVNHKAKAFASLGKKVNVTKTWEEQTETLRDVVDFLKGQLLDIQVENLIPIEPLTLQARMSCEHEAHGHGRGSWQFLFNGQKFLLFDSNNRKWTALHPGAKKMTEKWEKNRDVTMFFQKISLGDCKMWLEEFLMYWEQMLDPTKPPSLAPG

[4] = target: T4, CD86 (Homo sapiens (Human), UniProt P42081 24-247)
T4 sequence: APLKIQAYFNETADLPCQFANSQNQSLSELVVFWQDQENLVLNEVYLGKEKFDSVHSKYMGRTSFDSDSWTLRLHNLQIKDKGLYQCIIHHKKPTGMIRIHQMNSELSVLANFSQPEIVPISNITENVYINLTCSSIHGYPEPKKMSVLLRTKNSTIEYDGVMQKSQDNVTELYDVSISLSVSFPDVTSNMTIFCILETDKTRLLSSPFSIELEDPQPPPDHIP

[5] = target: T5, BTN2A1 (Homo sapiens (Human), UniProt Q7KYR7 29-248)
T5 sequence: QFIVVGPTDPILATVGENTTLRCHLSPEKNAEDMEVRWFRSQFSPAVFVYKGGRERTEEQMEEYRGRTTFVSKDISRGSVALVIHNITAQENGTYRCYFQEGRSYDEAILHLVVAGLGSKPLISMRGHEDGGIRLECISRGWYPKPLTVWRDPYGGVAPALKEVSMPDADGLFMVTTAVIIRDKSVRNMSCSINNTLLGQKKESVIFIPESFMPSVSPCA

[6] = target: T6, TLR9 (Homo sapiens (Human), UniProt Q9NR96 26-818)
T6 sequence: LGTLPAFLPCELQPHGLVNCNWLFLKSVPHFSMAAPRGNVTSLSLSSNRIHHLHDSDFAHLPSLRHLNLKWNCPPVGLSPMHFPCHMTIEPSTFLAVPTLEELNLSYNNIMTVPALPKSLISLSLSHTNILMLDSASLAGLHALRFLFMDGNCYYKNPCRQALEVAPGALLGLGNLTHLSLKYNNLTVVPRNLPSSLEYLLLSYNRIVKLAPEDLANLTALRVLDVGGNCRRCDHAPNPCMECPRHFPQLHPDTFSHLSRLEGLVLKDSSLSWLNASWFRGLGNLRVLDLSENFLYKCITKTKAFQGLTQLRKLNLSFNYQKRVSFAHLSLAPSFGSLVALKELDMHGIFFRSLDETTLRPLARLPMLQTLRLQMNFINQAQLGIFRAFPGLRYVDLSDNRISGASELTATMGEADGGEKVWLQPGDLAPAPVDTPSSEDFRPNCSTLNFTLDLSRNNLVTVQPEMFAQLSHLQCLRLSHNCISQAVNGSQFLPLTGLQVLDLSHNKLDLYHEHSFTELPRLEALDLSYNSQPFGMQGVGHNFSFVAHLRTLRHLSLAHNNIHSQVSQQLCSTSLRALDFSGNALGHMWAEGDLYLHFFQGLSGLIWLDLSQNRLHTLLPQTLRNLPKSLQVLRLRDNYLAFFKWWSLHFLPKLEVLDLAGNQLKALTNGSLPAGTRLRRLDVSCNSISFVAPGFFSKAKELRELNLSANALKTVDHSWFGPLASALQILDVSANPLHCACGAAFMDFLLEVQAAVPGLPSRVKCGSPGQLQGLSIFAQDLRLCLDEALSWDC

[7] = target: LRRN1 (Homo sapiens (Human), UniProt Q6UXK5 26-631)
[8] = target: T7, SCARF1 (Homo sapiens (Human), UniProt Q14162 20-421)
T7 sequence: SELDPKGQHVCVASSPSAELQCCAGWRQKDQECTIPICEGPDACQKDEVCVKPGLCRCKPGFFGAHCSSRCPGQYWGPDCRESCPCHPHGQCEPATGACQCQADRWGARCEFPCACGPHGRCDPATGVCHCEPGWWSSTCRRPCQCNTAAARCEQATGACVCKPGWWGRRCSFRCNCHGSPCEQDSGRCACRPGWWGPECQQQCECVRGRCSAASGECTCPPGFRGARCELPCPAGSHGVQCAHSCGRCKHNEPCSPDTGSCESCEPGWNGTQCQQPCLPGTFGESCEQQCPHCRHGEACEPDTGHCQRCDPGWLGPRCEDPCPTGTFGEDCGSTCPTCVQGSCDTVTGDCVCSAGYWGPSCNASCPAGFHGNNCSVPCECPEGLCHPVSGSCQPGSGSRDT

[9] = target: CFC1 (Homo sapiens (Human), UniProt P0CG37 26-158)

Measured: binding result

Sequence of CFC1 (P0CG37 26-158 limits assumed): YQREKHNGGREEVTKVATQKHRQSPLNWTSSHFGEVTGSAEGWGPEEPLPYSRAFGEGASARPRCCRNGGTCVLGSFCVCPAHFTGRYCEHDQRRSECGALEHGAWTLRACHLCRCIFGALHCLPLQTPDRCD
Sequence of LRRN1 (Q6UXK5 26-631 limits assumed): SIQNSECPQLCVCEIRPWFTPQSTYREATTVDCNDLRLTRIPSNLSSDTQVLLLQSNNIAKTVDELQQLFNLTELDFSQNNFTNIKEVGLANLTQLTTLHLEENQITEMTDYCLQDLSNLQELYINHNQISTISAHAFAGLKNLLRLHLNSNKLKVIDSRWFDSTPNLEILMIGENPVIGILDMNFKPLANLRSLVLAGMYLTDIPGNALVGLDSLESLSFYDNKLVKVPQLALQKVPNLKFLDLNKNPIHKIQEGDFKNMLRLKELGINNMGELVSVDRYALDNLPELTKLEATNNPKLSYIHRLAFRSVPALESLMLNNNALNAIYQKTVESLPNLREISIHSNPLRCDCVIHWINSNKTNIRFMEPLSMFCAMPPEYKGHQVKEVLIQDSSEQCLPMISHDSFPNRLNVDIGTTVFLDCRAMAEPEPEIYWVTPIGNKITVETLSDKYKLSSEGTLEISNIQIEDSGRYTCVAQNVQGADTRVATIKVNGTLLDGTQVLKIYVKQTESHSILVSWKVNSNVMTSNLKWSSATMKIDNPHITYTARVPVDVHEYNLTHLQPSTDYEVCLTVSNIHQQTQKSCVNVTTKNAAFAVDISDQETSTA

B1: PD1-45D6 (antibody, V domains shown)
VH: QVQLVESGGGVVQPGRSLRLSCAASGFTFSSYAMHWVRQVPGKGLEWVAVISYDGNDKYYADSVKGRFTISRDNSKNTLYLQMNSLRAEDTAVYYCVPTTFEYWGQGSQVTVSS
VL: DIVMTQTPLSLPVTPGEAASISCRSSQSLLDSDDGKTYLDWYLQKPGQSPQLLIYTLSYRASGVPDRFSGSGSGTEFNLRISRVEAEDVGIYYCMQRVEFPFTFGQGTKLDIK
notes: scFv-phage in the screening ELISA; whole IgG in the other assays
no binding (tested: 1 ug/ml): all assays above

B2: PD1-41C9 (antibody, V domains shown)
VH: QMQLVESGGGVVQPGRSLRLSCAASGFTFSSYAMHWVRQAPGKGLEWVAVISYDGSNKYYADSVKGRFTISRDNSKNTLYLQMNRLRSEDTAVYYCTTTTFDSWGQGTLITVSS
VL: DIVMTQTPLSLPVTPGEAASISCRSSQSLLDSEDGNTYLDWYLQKPGQSPQLLIYTLSHRASGVPDRFSGSGSGTDFTLKISRVAAEDVGLYYCLQRMGFPYTFGQGTKLDIK
notes: as for B1
no binding (tested: 1 ug/ml): all assays above

B3: PD1-49A2 (antibody, V domains shown)
VH: QVQLVESGGGVVQPGRSLRLSCAASGFTFSSYAMHWVRQAPGKGLEWVAVISYDGSNKYYADSVKGRFTISRDNPKNTLYLQMNSLRAEDTAVYYCTTTTFDSWGRGTLVTVSS
VL: DIVMTQSPLSLPVTPGEPASISCRSSQSLFDSDDGNTYLDWYLQKPGQSPQLLIYTLSHRASGVPDRFSGSGSGTDFTLKISRVEAEDVGIYYCLQRMGFPYTFGQGTKVEIK
notes: scFv-phage in the screening ELISA; whole IgG in the other assays; also called Parent 49A2
no binding (tested: 1 ug/ml): all assays above
